Assay results from PMC9125324, “MdJa2 Participates in the Brassinosteroid Signaling Pathway to Regulate the Synthesis of Anthocyanin and Proanthocyanidin in Red-Fleshed Apple”.

Assays:
MdJa2-His [1] = target: T1, MdJa2-His (Malus domestica? (red-fleshed apple), UniProt Q208U7 1-224); assay: competition; 50-200x excess vs labeled N5; EMSA (LightShift kit): 2.5% glycerol, 5 mM MgCl2, 10 mM EDTA, 50 mM KCl; room temperature, 30 min; pH not stated; details: protein: recombinant; tags: His (pET32a); chain copies: 2; blunt
MdJa2-His [2] = target: T1, MdJa2-His; assay: EMSA; EMSA (LightShift kit): 2.5% glycerol, 5 mM MgCl2, 10 mM EDTA, 50 mM KCl; room temperature, 30 min; pH not stated; details: protein: recombinant, tags: His (pET32a), chain copies: 2, blunt
MdJa2-His [3] = target: T1, MdJa2-His; assay: competition; 50-200x excess vs labeled N3; EMSA (LightShift kit): 2.5% glycerol, 5 mM MgCl2, 10 mM EDTA, 50 mM KCl; room temperature, 30 min; pH not stated; details: protein: recombinant; tags: His (pET32a); chain copies: 2; blunt

T1 sequence (Q208U7 entry or part of it): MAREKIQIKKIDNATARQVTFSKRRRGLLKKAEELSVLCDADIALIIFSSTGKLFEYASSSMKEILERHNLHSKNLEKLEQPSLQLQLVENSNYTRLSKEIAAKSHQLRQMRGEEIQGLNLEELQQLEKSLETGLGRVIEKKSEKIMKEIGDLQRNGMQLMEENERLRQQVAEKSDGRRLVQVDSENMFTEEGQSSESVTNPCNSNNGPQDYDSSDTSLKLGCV

| Binder | binding result (MdJa2-His [2]; label: biotin (labeled probe)) | further results |
| --- | --- | --- |
| MYB12-mutant probe (printed NYB12-mutant) (dsDNA) DNA 1: AAATTCAGGAACCATTGCTACAACCAAGCATAACACAGT DNA 2: ACTGTGTTATGCTTGGTTGTAGCAATGGTTCCTGAATTT | – | binding result (MdJa2-His [1]): no binding |
| MYB12 promoter probe (dsDNA) DNA 1: AAATTCAGGAACCATTGCTACAATTAAGCATAACACAGT DNA 2: ACTGTGTTATGCTTAATTGTAGCAATGGTTCCTGAATTT | binds | – |
| MYB9 promoter probe (dsDNA) DNA 1: TAAATAGTAATAATATCATTTTTGTACATTCAGATAA DNA 2: TTATCTGAATGTACAAAAATGATATTATTACTATTTA | binds | – |
| MYB9-mutant probe (dsDNA) DNA 1: TAAATAGTAATAATATCACCTTTGTACATTCAGATAA DNA 2: TTATCTGAATGTACAAAGGTGATATTATTACTATTTA | – | binding result (MdJa2-His [3]): no binding |
| ANS promoter probe (dsDNA) DNA 1: GCAATTAAGTTTGTAAACCAATAATTAACTTAATTTTGAT DNA 2: ATCAAAATTAAGTTAATTATTGGTTTACAAACTTAATTGC | binds | – |
| ANS-mutant probe (dsDNA) DNA 1: GCAACCAAGTTTGTAAACCAATAATTAACTTAATTTTGAT DNA 2: ATCAAAATTAAGTTAATTATTGGTTTACAAACTTGGTTGC | – | binding result (MdJa2-His [2]): no binding |
